One assay has as its target T1, CXCR1 (UniProt P25024 1-350, limits assumed).
T1 construct: The receptor preparation used in the ELISA is not described; also called IL-8R
T1 sequence (looked up): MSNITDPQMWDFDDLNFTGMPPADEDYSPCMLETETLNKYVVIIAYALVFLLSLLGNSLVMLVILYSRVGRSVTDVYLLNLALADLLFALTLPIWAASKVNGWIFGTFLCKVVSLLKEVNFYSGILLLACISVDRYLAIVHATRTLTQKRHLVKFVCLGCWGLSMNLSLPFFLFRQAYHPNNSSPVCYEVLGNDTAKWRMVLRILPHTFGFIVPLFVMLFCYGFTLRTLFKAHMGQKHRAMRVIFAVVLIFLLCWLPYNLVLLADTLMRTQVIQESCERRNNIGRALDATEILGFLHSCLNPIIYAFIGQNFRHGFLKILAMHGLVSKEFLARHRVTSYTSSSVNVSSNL
Kind of assay: indirect ELISA, ONCO P8-CXCR1 complex formation. For orientation: ELISA stands for enzyme-linked immunosorbent assay.

The next assay deals with T2, CXCR2 (UniProt P25025 1-360, limits assumed).
T2 construct: The receptor preparation used in the ELISA is not described; also called IL-8R
T2 sequence (looked up): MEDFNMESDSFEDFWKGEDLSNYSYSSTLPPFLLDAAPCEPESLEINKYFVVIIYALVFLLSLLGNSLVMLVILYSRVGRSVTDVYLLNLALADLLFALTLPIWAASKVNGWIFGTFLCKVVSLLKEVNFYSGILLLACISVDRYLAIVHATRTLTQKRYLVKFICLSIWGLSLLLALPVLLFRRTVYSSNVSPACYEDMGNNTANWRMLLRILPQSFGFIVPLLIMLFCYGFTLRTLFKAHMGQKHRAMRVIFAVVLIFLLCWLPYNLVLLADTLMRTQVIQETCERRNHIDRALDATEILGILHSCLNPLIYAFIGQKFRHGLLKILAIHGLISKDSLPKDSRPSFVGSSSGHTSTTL
Kind of assay: indirect ELISA, ONCO P8-CXCR2 complex formation.

B1: ONCO P-8 (peptide)
chain: GSKELRCQCIRSYSKPFHPKFIKELRVIPASQFCANTEIIVKLSDGRELCLDPKENWVQRVVEKFLKRAENS
notes: also called chemokine receptor antagonistic modified peptide
On to B1, for which the Kd with CXCR1 stood at 0.286 µM; in the assay with CXCR2 it was 0.139 µM.

The term Kd denotes the equilibrium constant for the complex coming apart. The low end stands for a tighter complex, the high end for a looser complex.

The record behind these values is EP3854411A1 (Rise Biopharmaceuticals, Inc. (Beijing), dated 2021).
